PMC6800154

Experiments:
[1] = molecular target: Focal adhesion kinase (FAK), endogenous in rat aortic smooth muscle cells (rat (endogenous in RASMs)) (UniProt O35346); assay: co-IP
YFP-FAK (mouse) = YFP-FAK (mouse) (UniProt P34152); assay: FRET or BRET
Sequence of UniProt P34152 (P34152 whole entry): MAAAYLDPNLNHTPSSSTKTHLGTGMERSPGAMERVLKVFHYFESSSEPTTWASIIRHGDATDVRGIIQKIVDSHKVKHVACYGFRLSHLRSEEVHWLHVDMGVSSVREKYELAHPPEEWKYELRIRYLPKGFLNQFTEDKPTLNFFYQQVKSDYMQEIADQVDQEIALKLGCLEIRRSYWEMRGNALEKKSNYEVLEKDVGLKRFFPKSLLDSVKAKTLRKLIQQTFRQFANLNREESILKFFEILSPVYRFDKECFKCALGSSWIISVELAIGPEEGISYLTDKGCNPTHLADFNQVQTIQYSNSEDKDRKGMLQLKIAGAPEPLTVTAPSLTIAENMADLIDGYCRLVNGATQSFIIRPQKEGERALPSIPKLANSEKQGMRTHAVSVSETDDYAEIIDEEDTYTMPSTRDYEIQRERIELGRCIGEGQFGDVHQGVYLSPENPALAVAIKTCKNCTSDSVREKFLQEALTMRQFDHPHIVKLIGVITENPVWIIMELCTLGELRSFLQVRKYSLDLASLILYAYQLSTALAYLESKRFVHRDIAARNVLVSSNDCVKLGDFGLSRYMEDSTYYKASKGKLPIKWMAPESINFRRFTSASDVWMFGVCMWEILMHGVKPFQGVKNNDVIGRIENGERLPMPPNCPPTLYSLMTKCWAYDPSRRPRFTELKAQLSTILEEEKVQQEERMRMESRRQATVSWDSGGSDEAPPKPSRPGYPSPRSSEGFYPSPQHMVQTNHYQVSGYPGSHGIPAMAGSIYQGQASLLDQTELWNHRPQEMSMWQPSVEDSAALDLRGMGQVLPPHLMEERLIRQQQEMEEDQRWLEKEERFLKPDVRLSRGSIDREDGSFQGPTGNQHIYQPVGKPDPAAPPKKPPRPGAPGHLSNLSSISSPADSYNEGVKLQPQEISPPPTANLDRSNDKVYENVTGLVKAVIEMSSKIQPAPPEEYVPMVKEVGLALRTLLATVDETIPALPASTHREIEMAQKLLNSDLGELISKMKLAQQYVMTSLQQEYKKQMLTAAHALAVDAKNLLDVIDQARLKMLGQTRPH

Sequence of UniProt O35346 (O35346 whole entry): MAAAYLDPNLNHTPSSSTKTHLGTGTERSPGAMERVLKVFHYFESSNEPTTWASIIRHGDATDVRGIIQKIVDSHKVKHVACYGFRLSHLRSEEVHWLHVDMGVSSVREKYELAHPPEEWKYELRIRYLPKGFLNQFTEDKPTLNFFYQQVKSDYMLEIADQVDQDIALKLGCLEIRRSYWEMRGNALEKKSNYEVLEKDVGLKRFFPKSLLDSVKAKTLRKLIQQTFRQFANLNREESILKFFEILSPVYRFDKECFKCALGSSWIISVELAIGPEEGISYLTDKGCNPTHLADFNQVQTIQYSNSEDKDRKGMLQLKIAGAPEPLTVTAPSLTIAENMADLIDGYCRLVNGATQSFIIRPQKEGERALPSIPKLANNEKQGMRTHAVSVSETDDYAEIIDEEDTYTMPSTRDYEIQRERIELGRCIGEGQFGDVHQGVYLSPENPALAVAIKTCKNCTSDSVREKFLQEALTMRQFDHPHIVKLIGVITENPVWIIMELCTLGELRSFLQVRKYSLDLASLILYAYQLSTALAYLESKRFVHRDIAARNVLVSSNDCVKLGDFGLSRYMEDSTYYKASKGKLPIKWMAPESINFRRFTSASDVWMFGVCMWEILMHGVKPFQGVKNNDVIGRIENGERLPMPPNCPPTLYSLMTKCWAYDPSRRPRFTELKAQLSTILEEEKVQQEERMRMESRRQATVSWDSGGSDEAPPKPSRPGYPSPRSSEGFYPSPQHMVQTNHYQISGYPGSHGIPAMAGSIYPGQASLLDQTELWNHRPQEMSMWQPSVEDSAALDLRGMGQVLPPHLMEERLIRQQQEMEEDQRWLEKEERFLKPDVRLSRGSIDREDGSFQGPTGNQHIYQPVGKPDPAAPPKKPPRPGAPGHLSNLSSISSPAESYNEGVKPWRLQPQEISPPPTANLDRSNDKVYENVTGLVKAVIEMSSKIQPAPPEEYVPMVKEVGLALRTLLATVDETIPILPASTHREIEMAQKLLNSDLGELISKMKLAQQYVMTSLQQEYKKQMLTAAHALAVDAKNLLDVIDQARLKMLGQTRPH

- fold co-immunoprecipitation against WT-FRNK [1]: 5 fold
- FRET efficiency (YFP-FAK (mouse)): 53%
Substance: cyan fluorescent protein (CFP) S217A-FRNK (natural protein)
